Values belong to the molecule of their own block, whether it stands above or below them. Ends that are not written are not given here.
B2: Dab2 myosin interacting region (MIR) with C-terminal eGFP (domain or fragment, human, UniProt P98082 675-713, looked up)
chain: SSGTLSAFASYFNSKVGIPQENADHDDFDANQLLNKINE
notes: Dab2, human, a.a; fluorophore joined through a flexible (Gly-Ser-Gly) x 2 repeat; Held on DNA nanotubes or surfaces through a GFP nanobody (a tool); also called Dab2-MIR-GFP; GFP-tagged Dab2 MIR; not shown: eGFP, C-terminal, kept
B3: Cy3-labeled full-length myosin VI (natural protein, human, UniProt Q9UM54 1-1294, looked up)
chain: MEDGKPVWAPHPTDGFQMGNIVDIGPDSLTIEPLNQKGKTFLALINQVFPAEEDSKKDVEDNCSLMYLNEATLLHNIKVRYSKDRIYTYVANILIAVNPYFDIPKIYSSEAIKSYQGKSLGTRPPHVFAIADKAFRDMKVLKMSQSIIVSGESGAGKTENTKFVLRYLTESYGTGQDIDDRIVEANPLLEAFGNAKTVRNNNSSRFGKFVEIHFNEKSSVVGGFVSHYLLEKSRICVQGKEERNYHIFYRLCAGASEDIREKLHLSSPDNFRYLNRGCTRYFANKETDKQILQNRKSPEYLKAGSMKDPLLDDHGDFIRMCTAMKKIGLDDEEKLDLFRVVAGVLHLGNIDFEEAGSTSGGCNLKNKSAQSLEYCAELLGLDQDDLRVSLTTRVMLTTAGGTKGTVIKVPLKVEQANNARDALAKTVYSHLFDHVVNRVNQCFPFETSSYFIGVLDIAGFEYFEHNSFEQFCINYCNEKLQQFFNERILKEEQELYQKEGLGVNEVHYVDNQDCIDLIEAKLVGILDILDEENRLPQPSDQHFTSAVHQKHKDHFRLTIPRKSKLAVHRNIRDDEGFIIRHFAGAVCYETTQFVEKNNDALHMSLESLICESRDKFIRELFESSTNNNKDTKQKAGKLSFISVGNKFKTQLNLLLDKLRSTGASFIRCIKPNLKMTSHHFEGAQILSQLQCSGMVSVLDLMQGGYPSRASFHELYNMYKKYMPDKLARLDPRLFCKALFKALGLNENDYKFGLTKVFFRPGKFAEFDQIMKSDPDHLAELVKRVNHWLTCSRWKKVQWCSLSVIKLKNKIKYRAEACIKMQKTIRMWLCKRRHKPRIDGLVKVGTLKKRLDKFNEVVSVLKDGKPEMNKQIKNLEISIDTLMAKIKSTMMTQEQIQKEYDALVKSSEELLSALQKKKQQEEEAERLRRIQEEMEKERKRREEDEKRRRKEEEERRMKLEMEAKRKQEEEERKKREDDEKRIQAEVEAQLARQKEEESQQQAVLEQERRDRELALRIAQSEAELISDEAQADLALRRSLDSYPVSKNDGTRPKMTPEQMAKEMSEFLSRGPAVLATKAAAGTKKYDLSKWKYAELRDTINTSCDIELLAACREEFHRRLKVYHAWKSKNKKRNTETEQRAPKSVTDYDFAPFLNNSPQQNPAAQIPARQREIEMNRQQRFFRIPFIRPADQYKDPQSKKKGWWYAHFDGPWIARQMELHPDKPPILLVAGKDDMEMCELNLEETGLTRKRGAEILPRQFEEIWERCGGIQYLQNAIESRQARPTYATAMLQSLLK
modifications: Cy3 label
notes: Myosin VI, human, the isoform containing both the long insert (LI) and short insert (SI); probably Myosin VI FL-SNAP (C-terminal SNAP, FLAG and 6X-His tags); Assay buffers held 10 uM calmodulin; The surface gliding assays used dark myosin VI FL-FLAG; also called Cy3-myosin VI; myosin VI FL

Columns and labels:
myosin VI CBD = myosin VI CBD (UniProt Q64331); settings: cited from earlier work
[1] = molecular target: T1, Myosin VI cargo-binding domain (CBD) with C-terminal mCerulean (human, UniProt Q9UM54 991-1294, C-terminal mCerulean omitted. Limits are those printed for the Kd FRET assay (CBD 991-1294, LI+SI isoform of 1294 aa); the construct list instead gives 1030-1284.); experiment: FRET or BRET; bimolecular FRET titration in solution; CBD-mCer held constant at 30 nM, increasing DAB2-MIR-mCit titrated in; excitation 430 nm, cross-excitation spectra subtracted; settings: both partners purified
T1 chain: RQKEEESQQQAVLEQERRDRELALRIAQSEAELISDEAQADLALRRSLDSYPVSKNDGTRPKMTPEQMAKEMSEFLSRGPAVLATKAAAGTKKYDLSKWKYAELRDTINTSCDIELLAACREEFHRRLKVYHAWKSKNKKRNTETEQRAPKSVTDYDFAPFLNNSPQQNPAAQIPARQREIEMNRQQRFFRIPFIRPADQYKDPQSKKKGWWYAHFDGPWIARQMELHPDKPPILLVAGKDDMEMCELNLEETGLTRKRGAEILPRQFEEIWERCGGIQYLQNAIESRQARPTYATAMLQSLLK

[2] = molecular target: B3; experiment: single-molecule TIRF binding assay; adaptor-GFP held through GFP nanobody-SNAP on DNA nanotubes; Cy3-labeled myosin VI at 50 pM in AB.BSA.Cam; 20 Hz for 3 min; bound and rebinding times fitted to a single-exponential decay; settings: both partners purified
[3] = molecular target: B2; experiment: as above; settings: both partners purified

Chain of myosin VI CBD (Q64331 1137-1262): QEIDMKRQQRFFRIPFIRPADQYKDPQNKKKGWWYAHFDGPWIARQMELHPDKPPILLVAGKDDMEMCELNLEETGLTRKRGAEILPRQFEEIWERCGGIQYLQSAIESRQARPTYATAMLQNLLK

Molecule: Dab2 MIR (from UniProt P98082)
- Kd (myosin VI CBD): 500 nM

- Kd [1]: ~184 nM
B1: Dab2 myosin interacting region (MIR) with C-terminal mCitrine (domain or fragment, human, UniProt P98082 675-713, looked up)
chain: SSGTLSAFASYFNSKVGIPQENADHDDFDANQLLNKINE-mCitrine
notes: Dab2, human, a.a; fluorophore joined through a flexible (Gly-Ser-Gly) x 2 repeat; Cloned into pBiex1; also called DAB2-MIR-mCit; mCit-MIR; not shown: mCitrine, C-terminal, kept

Molecule: B2
- koff [2]: 0.91 s⁻¹

Molecule: B3
- half-life of the interaction [3]: ~1.2 s
